Laboratory results reported in article doi:10.1101/2024.01.23.576903.

Molecular target: ζ subunit (F420-reductase subunit) of the ACDS CODH subcomplex from Candidatus Ethanoperedens thermophilum (Candidatus Ethanoperedens thermophilum)
Test: crystal structure

Substance: ζ subunit (F420-reductase subunit) of the ACDS CODH subcomplex from Candidatus Ethanoperedens thermophilum (natural protein)
- stoichiometry N: 2
